Assay [1] addresses his-labeled human IL-13 (immunogen A) (human) (UniProt P35225). Kind of assay: ELISA, biotin-immunogen A; antibody at 0.00 nM (as printed, 7th dilution). For orientation: In an ELISA, binding on a coated surface is turned into a signal by an enzyme label.
For assay [2] the target is unchanged. As to the kind of experiment: ELISA, biotin-immunogen A; antibody at 0.02 nM.
Assay [3] concerns the target his-labeled human IL-13R130Q variant (human) (UniProt P35225). Kind of assay: ELISA, IL-13R130Q variant; antibody at 0.021 nM.
The target in assay [4] is cynomolgus IL-13 (purchased from sino biological) (cynomolgus) (UniProt Q0PW92). As to the kind of experiment: ELISA, cynomolgus IL-13; antibody at 0.107 nM.
cynomolgus IL-13 (purchased from sino biological) (cynomolgus), sequence (Q0PW92 entry or part of it): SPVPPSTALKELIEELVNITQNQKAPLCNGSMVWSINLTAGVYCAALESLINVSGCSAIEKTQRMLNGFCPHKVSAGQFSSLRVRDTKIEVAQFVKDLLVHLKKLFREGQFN
The target of assay [5] is his-labeled human IL-13 (immunogen A) (human) (UniProt P35225). Kind of assay: ELISA, biotin-immunogen A; antibody at 0.00 nM (8th dilution).
The target of assay [6] is cynomolgus IL-13 (purchased from sino biological) (cynomolgus) (UniProt Q0PW92). Kind of assay: ELISA, cynomolgus IL-13; antibody at 13.3 nM.
For assay [7], the target named is his-labeled human IL-13R130Q variant (human) (UniProt P35225). As to the kind of experiment: ELISA, IL-13R130Q variant; antibody at 0.004 nM.
his-labeled human IL-13R130Q variant (human), sequence (P35225 other isoform, or with tags, fused parts or gaps mutant): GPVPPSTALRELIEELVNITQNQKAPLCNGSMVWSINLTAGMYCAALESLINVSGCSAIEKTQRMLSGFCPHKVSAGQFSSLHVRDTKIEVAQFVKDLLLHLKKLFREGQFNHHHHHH
In assay [8] the target is his-labeled human IL-13 (immunogen A) (human) (UniProt P35225). Kind of assay: ELISA, biotin-immunogen A; antibody at 0.53 nM.
Assay [9] concerns the target his-labeled human IL-13R130Q variant (human) (UniProt P35225). As to the kind of experiment: ELISA, IL-13R130Q variant; antibody at 0.11 nM.
Assay [10] deals with his-labeled human IL-13 (immunogen A) (human) (UniProt P35225). As to the kind of experiment: ELISA, biotin-immunogen A; antibody at 0.000 nM.
Assay [11] shares this target. As to the kind of experiment: ELISA, biotin-immunogen A; antibody at 0.11 nM.
Assay [12] has as its target his-labeled human IL-13R130Q variant (human) (UniProt P35225). As to the kind of experiment: ELISA, IL-13R130Q variant; antibody at 2.67 nM.
Assay [13] deals with his-labeled human IL-13 (immunogen A) (human) (UniProt P35225). Kind of assay: ELISA, biotin-immunogen A; antibody at 0.00 nM (6th dilution).
The target of assay [14] is cynomolgus IL-13 (purchased from sino biological) (cynomolgus) (UniProt Q0PW92). As to the kind of experiment: ELISA, cynomolgus IL-13; antibody at 13.33 nM.
Assay [15] concerns the target his-labeled human IL-13R130Q variant (human) (UniProt P35225). As to the kind of experiment: ELISA, IL-13R130Q variant; antibody at 0.53 nM.
Assay [16] addresses his-labeled human IL-13 (immunogen A) (human) (UniProt P35225). As to the kind of experiment: FACS blocking assay: antibody titrated with biotin-labeled immunogen A (30 ng/mL); blocked partner IL-13Ra1/IL-4Ra on HEK293 clone 4C1; Alexa 488 streptavidin.
In assay [17] the target is his-labeled human IL-13R130Q variant (human) (UniProt P35225). As to the kind of experiment: ELISA, IL-13R130Q variant; antibody at 66.67 nM.
The target in assay [18] is his-labeled human IL-13 (immunogen A) (human) (UniProt P35225). As to the kind of experiment: ELISA, biotin-immunogen A; antibody at 13.33 nM.
The target is the same in assay [19]. Kind of assay: SPR (Biacore).
The target is the same in assay [20]. As to the kind of experiment: FACS blocking assay: antibody titrated with biotin-labeled immunogen A (20 ng/mL); blocked partner IL-13Ra2 on HEK293 clone 1A1; Alexa 488 streptavidin.
Assay [21] concerns the target his-labeled human IL-13R130Q variant (human) (UniProt P35225). Kind of assay: ELISA: IL-13R130Q variant on the plate, antibody titrated, HRP secondary antibody, OD450.
Assay [22] concerns the target T1, mouse IL-13 (purchased from sino biological) (mouse, UniProt P20109 19-131).
T1 chain: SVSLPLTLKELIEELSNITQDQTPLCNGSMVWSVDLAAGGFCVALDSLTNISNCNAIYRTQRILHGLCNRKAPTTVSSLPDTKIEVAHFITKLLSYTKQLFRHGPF
As to the kind of experiment: ELISA, mouse IL-13; antibody at 0.53 nM.

For assay [23], the target named is T1, mouse IL-13 (purchased from sino …). As to the kind of experiment: ELISA, mouse IL-13; antibody at 0.004 nM.
The target is the same in assay [24]. Kind of assay: ELISA, mouse IL-13; antibody at 0.021 nM.
Assay [25] shares this target. Kind of assay: ELISA, mouse IL-13; antibody at 0.000 nM.
Assay [26] concerns the target cynomolgus IL-13 (purchased from sino biological) (cynomolgus) (UniProt Q0PW92). As to the kind of experiment: ELISA, cynomolgus IL-13; antibody at 66.67 nM.
The target of assay [27] is his-labeled human IL-13 (immunogen A) (human) (UniProt P35225). As to the kind of experiment: ELISA, biotin-immunogen A; antibody at 0.021 nM.
Assay [28] deals with T1, mouse IL-13 (purchased from sino …). As to the kind of experiment: ELISA, mouse IL-13; antibody at 0.11 nM.
Assay [29] deals with his-labeled human IL-13 (immunogen A) (human) (UniProt P35225). As to the kind of experiment: ELISA, biotin-immunogen A; antibody at 0.004 nM.
In assay [30] the target is T1, mouse IL-13 (purchased from sino …). Kind of assay: ELISA, mouse IL-13; antibody at 2.67 nM.
Assay [31] shares this target. Kind of assay: ELISA, mouse IL-13; antibody at 0.001 nM.
Assay [32] has as its target cynomolgus IL-13 (purchased from sino biological) (cynomolgus) (UniProt Q0PW92). Kind of assay: ELISA, cynomolgus IL-13; antibody at 333.3 nM.

Several values for one entry are separate records, joined by “and”; a condition that tells them apart may be missing. Equal values may be shown once. A value given as a limit tells only on which side of the number the result lay.

Regarding IgG control (mouse IgG) (antibody), the OD450 nm turned out to be 0.07 in assay [1]; 0.07 in assay [2]; 0.06 in assay [3]; 0.059 in assay [4]; 0.07 in assay [5]; 0.1 in [6]. In addition, the OD450 nm in assay [7] is 0.07; in [8], 0.07 and 0.06; in assay [9], 0.06; in assay [10], 0.05; in assay [11], 0.07 and 0.05; in assay [12], 0.06. Moreover, the figures for the OD450 nm in assay [13], in assay [14] and in [15] were 0.08, 0.21 and 0.06, respectively.

B1: c35E2C3 (mouse-human chimeric IL-13 antibody) (antibody, V domains shown)
VH: EVQLQESGPGLAKPSQTLSLTCSVTGYSITSDYWNWIRKFPGNKLEYMGYISYNGNTYYNPSLKSQISITRDTSKNQLYLQLKSATTEDTATYYCARLAKWTWYFDIWGTGTTVTVSS
VL: DIQMNQSPSSLSASLGDTITITCHASQNINVWLSWYQQKPGSLPKLLIYKASDLHTGVPSRFSGSGSGTGFTLTISSLQPEDIATYYCQQGQSYPYTFGGGTKLEIK
Usually Kd stands for the concentration at which binding is half-saturated. A high value points to weaker binding. Usually EC50 (read off the curve) stands for the concentration that produces a half-maximal response. Regarding B1, the OD450 nm in [1] is 0.07; in assay [2], 0.18; in assay [3], 0.28; in assay [4], 0.181; in assay [5], 0.06; in [6] it was 3.1. The OD450 nm in [7] turned out to be 0.13; in assay [17], 3.4; in [8], 1.63; in assay [18], 2.59; in [9], 0.97; in assay [11], 0.59. For the same molecule, the OD450 nm in assay [12] stood at 3.1; in assay [13], 0.09; in assay [15] it was 2.4. In addition, the IC50 (read off the curve) is 0.5 nM in [16] and 0.3 nM in assay [20]. Moreover, in assay [19], the Kd is less than 90 nM. In assay [21], this molecule came in with an EC50 (read off the curve) of 0.3 nM.

B2: 29D9H8 (lead antibody, mouse hybridoma) (antibody, V domains shown)
VH: QVQLQQSGAELVRPGASVTLSCKASGYTFTDYEMHWVKQTPVHGLEWIGGIDPETGGTASNQKFKGKAILTADKSSSTAYMELRSLTSEDSAVYYCTSGDYFGGGPFAYWGQGTLVTVSA
VL: DIKMTQSPSSMYASLGERVTITCKASQDINSYLSWFQQKPGKSPKTLIYRANRLVDGVPSRFSGSGSGQDYSLTISSLDYEDMGIYYCLQYDEFPYTFGGGTKLEIK
notes: Mouse monoclonal antibody purified from hybridoma supernatant on Protein G
In the case of B2, the OD450 nm amounted to 0.06 in assay [22]; 0.07 in [23]; 0.06 in assay [24]; 0.07 in assay [25]; 2.52 in assay [26]; 0.34 in assay [27]. The OD450 nm in [28] worked out at 0.07; in assay [8], 1.4; in [18], 1.6; in [29] it was 0.12; in [10], 0.06; in [11] it was 0.85. The OD450 nm in [30] was found to be 0.07; in assay [14], 2.46; in assay [31] it was 0.07. Further, the IC50 (read off the curve) in assay [16] worked out at 0.3 nM; in [20], 0.2 nM.

B3: c29D9H8 (mouse-human chimeric IL-13 antibody) (antibody, V domains shown)
VH: B2 VH
VL: B2 VL
For B3, the OD450 nm in [3] amounted to 0.4; in assay [4], 1.23; in [6] it was 3.5; in assay [7], 0.2; in [17], 3.06; in assay [9], 1.23. Besides, the OD450 nm in assay [12] is 2.92; in assay [15] it was 2.46; in [32], 3.7. The IC50 (read off the curve) in [16] is 0.5 nM; in assay [20] it was 0.2 nM. In assay [19], this molecule registered a Kd of less than 90 nM. For the same molecule, in assay [21], the EC50 (read off the curve) worked out at 0.2 nM.

B4: 28A2E11 (lead antibody, mouse hybridoma) (antibody, V domains shown)
VH: EVQLQQSGAELVKPGASVKLSCTASGFNIKDYYMHWVKQRTEQGLEWIGRIDPEDGETKYAPKFHDKATLTADTSSNTAYLQFSSLASEDTAVYYCTRYDYYGPFAYWGQGTLVTVSA
VL: QAVVTQESVLTTSPGETVTLTCRSSTGAVTTSNYANWVQEKPDHLFTGLIGGTNNRAPGVPARFSGSLIGDKAALTITGAQTEDEAIYFCALWYINHFIFGSGTKVTVL
notes: as for B2
With B4, the OD450 nm in [22] amounted to 0.07; in [23], 0.07; in assay [24], 0.08; in assay [25], 0.07; in assay [26], 1.99; in [27], 0.28. In addition, the OD450 nm worked out at 0.07 in [28]; 1.32 in assay [8]; 1.74 in [18]; 0.1 in [29]; 0.05 in [10]; 0.74 in [11]. Moreover, the OD450 nm in [30] is 0.08; in assay [14], 1.78; in assay [31] it was 0.06. Besides, the IC50 (read off the curve) was found to be 0.7 nM in assay [16] and 0.6 nM in assay [20].

B5: c28A2E11 (mouse-human chimeric IL-13 antibody) (antibody, V domains shown)
VH: B4 VH
VL: B4 VL
For the molecule B5, the OD450 nm in [1] turned out to be 0.07; in assay [2], 0.25; in assay [4] it was 0.183; in assay [5] it was 0.06; in assay [6] it was 2.4; in [8] it was 1.93. For the same molecule, the OD450 nm in [18] is 2.71; in [11] it was 0.83; in assay [13], 0.1; in [32], 3.9. Moreover, the IC50 (read off the curve) in assay [16] and in assay [20] was 1 nM each time. This molecule also returned a Kd in assay [19] of less than 90 nM. The molecule also displayed an EC50 (read off the curve) in [21] of 0.3 nM.
